In US11655308B2, “HM-3 fusion protein and application thereof” (TASLY BIOPHARMACEUTICALS CO., LTD., priority 2017, dated 2023):
“And” between values parts separate entries of the source, which are not always exact repeats. Equal values may be shown once.

Test: Pharmacokinetics after single subcutaneous injection (double-antibody sandwich ELISA)
Protocol: (1) 18 SD rats (half male and half female) were purchased and fed for one week.
(2) Rats were divided into 3 groups, half male and half female, and weight of rats were recorded respectively.
The blood was centrifuged at 12000 rpm/min to take 200 μL of supernatant, then the supernatant was diluted with PBS solution according to a ratio of 1:3, and finally placed in an EP tube and stored in a −80° C. refrigerator.
(4) Biological samples were measured by double-antibody sandwich ELISA.
(1) Coating, HM-3 monoclonal antibody was diluted with a coating buffer (CBS) in certain concentration, added to an ELISA plate and coated overnight.
(2) Plate washing, the coating buffer was discarded, and the plate was washed by PBST for 3 times, and then dried by patting.
(3) Sealing, a blocking buffer was added for sealing at 37.5° C., the plate washing process was repeated and the plate was dried by patting.
(4) Addition of samples to be measured, the samples to be measured were added to the ELISA plate with multiple wells, and then incubated at 37.5° C.; the plate washing process was repeated and the plate was dried by patting.
(5) Addition of a secondary antibody, the secondary antibody diluted proportionally was added for incubation at 37.5° C. The plate washing process was repeated and the plate was dried by patting.
(6) Addition of the enzyme-labeled secondary antibody for reaction, the HRP-labeled secondary antibody which was diluted by 5% skim milk powder solution according to certain proportion was added for incubation at 37.5° C. The plate washing process was repeated and the plate was dried by patting.
(7) Addition of a substrate, a TMB substrate in certain volume L was added for reaction in the dark.
(8) Termination of the reaction, a certain amount of stop buffer was added to terminate the reaction.
(9) Detection, read OD450 nm with a microplate reader.

**Q.** Which results are given for mIgG4-Fc-(GGGGS)3-HM-3 [TSL-4]?
**A.** Plasma concentration (4.17 mg/kg sc, 0.00 h, Mean): 0 µg/mL; Plasma concentration (4.17 mg/kg sc, 0.00 h, single rats No. 1-5): 0 µg/mL; Plasma concentration (4.17 mg/kg sc, 0.50 h, Mean): 0.0818 µg/mL; Plasma concentration (4.17 mg/kg sc, 0.50 h, single rats No. 1-5): 0.00626 µg/mL and 0.0985 µg/mL and 0.131 µg/mL and 0.0504 µg/mL and 0.122 µg/mL; Plasma concentration (4.17 mg/kg sc, 1.00 h, Mean): 0.135 µg/mL; Plasma concentration (4.17 mg/kg sc, 1.00 h, single rats No. 1-5): 0.0588 µg/mL and 0.162 µg/mL and 0.168 µg/mL and 0.136 µg/mL and 0.151 µg/mL; Plasma concentration (4.17 mg/kg sc, 3.00 h, Mean): 0.388 µg/mL; Plasma concentration (4.17 mg/kg sc, 3.00 h, single rats No. 1-5): 0.238 µg/mL and 0.382 µg/mL and 0.412 µg/mL and 0.338 µg/mL and 0.570 µg/mL; Plasma concentration (4.17 mg/kg sc, 5.00 h, Mean): 0.573 µg/mL; Plasma concentration (4.17 mg/kg sc, 5.00 h, single rats No. 1-5): 0.667 µg/mL and 0.482 µg/mL and 0.575 µg/mL and 0.374 µg/mL and 0.766 µg/mL; Plasma concentration (4.17 mg/kg sc, 6.00 h, Mean): 0.894 µg/mL; Plasma concentration (4.17 mg/kg sc, 6.00 h, single rats No. 1-5): 1.278 µg/mL and 0.699 µg/mL and 1.024 µg/mL and 0.491 µg/mL and 0.978 µg/mL; Plasma concentration (4.17 mg/kg sc, 7.00 h, Mean): 1.297 µg/mL; Plasma concentration (4.17 mg/kg sc, 7.00 h, single rats No. 1-5): 1.696 µg/mL and 0.903 µg/mL and 1.556 µg/mL and 0.914 µg/mL and 1.415 µg/mL; Plasma concentration (4.17 mg/kg sc, 8.00 h, Mean): 1.356 µg/mL; Plasma concentration (4.17 mg/kg sc, 8.00 h, single rats No. 1-5): 1.383 µg/mL and 1.584 µg/mL and 1.319 µg/mL and 1.407 µg/mL and 1.088 µg/mL; Plasma concentration (4.17 mg/kg sc, 10.00 h, Mean): 1.058 µg/mL; Plasma concentration (4.17 mg/kg sc, 10.00 h, single rats No. 1-5): 1.192 µg/mL and 1.305 µg/mL and 0.854 µg/mL and 0.960 µg/mL and 0.980 µg/mL; Plasma concentration (4.17 mg/kg sc, 12.00 h, Mean): 0.771 µg/mL; Plasma concentration (4.17 mg/kg sc, 12.00 h, single rats No. 1-5): 0.947 µg/mL and 0.964 µg/mL and 0.712 µg/mL and 0.363 µg/mL and 0.867 µg/mL; Plasma concentration (4.17 mg/kg sc, 16.00 h, Mean): 0.468 µg/mL; Plasma concentration (4.17 mg/kg sc, 16.00 h, single rats No. 1-5): 0.767 µg/mL and 0.682 µg/mL and 0.237 µg/mL and 0.183 µg/mL and 0.471 µg/mL; Plasma concentration (4.17 mg/kg sc, 20.00 h, Mean): 0.205 µg/mL; Plasma concentration (4.17 mg/kg sc, 20.00 h, single rats No. 1-5): 0.249 μg/mL and 0.252 μg/mL and 0.179 μg/mL and 0.172 μg/mL (2×); Plasma concentration (4.17 mg/kg sc, 24.00 h, Mean): 0.100 µg/mL; Plasma concentration (4.17 mg/kg sc, 24.00 h, single rats No. 1-5): 0.0638 μg/mL and 0.0738 μg/mL and 0.0533 μg/mL and 0.155 μg/mL (2×); Plasma concentration (4.17 mg/kg sc, 28.00 h, Mean): 0.0667 µg/mL; Plasma concentration (4.17 mg/kg sc, 28.00 h, single rats No. 1-5): 0.0454 μg/mL and 0.0406 μg/mL and 0.0381 μg/mL and 0.105 μg/mL (2×); Plasma concentration (4.17 mg/kg sc, 41.00 h, Mean): 0.0545 µg/mL; Plasma concentration (4.17 mg/kg sc, 41.00 h, single rats No. 1-5): 0.0298 μg/mL and 0.0288 μg/mL and 0.0231 μg/mL and 0.0954 μg/mL (2×); Plasma concentration (4.17 mg/kg sc, 53.00 h, Mean): 0.0366 µg/mL; Plasma concentration (4.17 mg/kg sc, 53.00 h, single rats No. 1-5): 0.0108 µg/mL and 0.0074 µg/mL and 0.0171 µg/mL and 0.0669 µg/mL and 0.0809 µg/mL; Plasma concentration (4.17 mg/kg sc, 65.00 h, Mean): 0.0233 µg/mL; Plasma concentration (4.17 mg/kg sc, 65.00 h, single rats No. 1-5): 0.008536 µg/mL and 0.003139 µg/mL and 0.0168 µg/mL and 0.0440 µg/mL and 0.044 µg/mL; Plasma concentration (4.17 mg/kg sc, 77.00 h, Mean): 0.0114 µg/mL; Plasma concentration (4.17 mg/kg sc, 77.00 h, single rats No. 1-5): 0.005846 µg/mL and 0.002666 µg/mL and 0.0125 µg/mL and 0.0181 µg/mL and 0.01811 µg/mL; AUC 0-77 (4.17 mg/kg single sc): 7055.774 ng·h/mL; AUC 0-∞ (4.17 mg/kg single sc): 9006.668 ± 3859.519 ng·h/mL; MRT 0-77 (4.17 mg/kg single sc): 14.880 h; MRT 0-∞ (4.17 mg/kg single sc): 17.330 h; Tmax (4.17 mg/kg single sc): 7.4 ± 0.55 h; ka (4.17 mg/kg single sc): 0.258; t½ka (absorption half-life) (4.17 mg/kg single sc): 2.265 h; t½ke (elimination half-life) (4.17 mg/kg single sc): 30.710 ± 3.100 h; α, ke (4.17 mg/kg single sc): 0.090; Plasma concentration (12.5 mg/kg sc, 0.50 h, Mean): 0.848 µg/mL; Plasma concentration (12.5 mg/kg sc, 0.50 h, single rats No. 1-5): 0.176 µg/mL and 0.741 µg/mL and 0.995 µg/mL and 0.598 µg/mL and 1.728 µg/mL; Plasma concentration (12.5 mg/kg sc, 1.00 h, Mean): 1.877 µg/mL; Plasma concentration (12.5 mg/kg sc, 1.00 h, single rats No. 1-5): 0.740 µg/mL and 1.435 µg/mL and 1.875 µg/mL and 1.153 µg/mL and 4.180 µg/mL; Plasma concentration (12.5 mg/kg sc, 3.00 h, Mean): 4.078 µg/mL; Plasma concentration (12.5 mg/kg sc, 3.00 h, single rats No. 1-5): 1.459 µg/mL and 2.970 µg/mL and 4.100 µg/mL and 2.070 µg/mL and 9.793 µg/mL; Plasma concentration (12.5 mg/kg sc, 5.00 h, Mean): 7.518 µg/mL; Plasma concentration (12.5 mg/kg sc, 5.00 h, single rats No. 1-5): 2.030 µg/mL and 5.512 µg/mL and 8.329 µg/mL and 6.748 µg/mL and 14.973 µg/mL; Plasma concentration (12.5 mg/kg sc, 6.00 h, Mean): 9.970 µg/mL; Plasma concentration (12.5 mg/kg sc, 6.00 h, single rats No. 1-5): 2.337 µg/mL and 7.869 µg/mL and 11.753 µg/mL and 9.720 µg/mL and 18.172 µg/mL; Plasma concentration (12.5 mg/kg sc, 7.00 h, Mean): 13.413 µg/mL; Plasma concentration (12.5 mg/kg sc, 7.00 h, single rats No. 1-5): 3.372 µg/mL and 8.202 µg/mL and 11.959 µg/mL and 7.582 µg/mL and 35.951 µg/mL; Plasma concentration (12.5 mg/kg sc, 8.00 h, Mean): 10.626 µg/mL; Plasma concentration (12.5 mg/kg sc, 8.00 h, single rats No. 1-5): 4.395 µg/mL and 6.684 µg/mL and 10.711 µg/mL and 6.343 µg/mL and 24.998 µg/mL; Plasma concentration (12.5 mg/kg sc, 10.00 h, Mean): 8.284 µg/mL; Plasma concentration (12.5 mg/kg sc, 10.00 h, single rats No. 1-5): 3.014 µg/mL and 5.271 µg/mL and 9.706 µg/mL and 6.000 µg/mL and 17.430 µg/mL; Plasma concentration (12.5 mg/kg sc, 12.00 h, Mean): 7.390 µg/mL; Plasma concentration (12.5 mg/kg sc, 12.00 h, single rats No. 1-5): 2.663 µg/mL and 4.448 µg/mL and 7.496 µg/mL and 5.562 µg/mL and 16.780 µg/mL; Plasma concentration (12.5 mg/kg sc, 16.00 h, Mean): 6.292 µg/mL; Plasma concentration (12.5 mg/kg sc, 16.00 h, single rats No. 1-5): 2.587 µg/mL and 3.719 µg/mL and 6.053 µg/mL and 4.976 µg/mL and 14.124 µg/mL; Plasma concentration (12.5 mg/kg sc, 20.00 h, Mean): 5.407 µg/mL; Plasma concentration (12.5 mg/kg sc, 20.00 h, single rats No. 1-5): 1.900 µg/mL and 3.086 µg/mL and 5.605 µg/mL and 3.962 µg/mL and 12.480 µg/mL
